Where two headings read alike, the source gives them in different places.
How the values were obtained:
[1] = Protocol: The vials were then charged with a non-CFC tetrafluoroethane, (134a) propellant with the aid of a Pamasol 2008 semi-automatic gas filling equipment.
The aerodynamic particle size was determined by 8-stage USP Anderson Cascade Impactor-Mark-II (trade mark). The Multistage Cascade Impactor was cleaned with methanol and air-dried at 30° C. Glass fibre filters were placed on the collection plates. Seals were aligned properly and the actuator was attached to the mouthpiece and assembled onto the USP induction port and jet stages. A vacuum pump was connected and air flow rate is set to 28.3 liter/min. The vial was primed by shaking for 10 seconds and actuating twice to waste. […] […] The filters were carefully removed and placed in scintillation vials and sonicated for 15 minutes.

[2] = healthy volunteers; 10, 20, 30 units aerosol
Text: Day-1: 5 puffs of 2 units each (total 10 units)
Day-2: 5 puffs of 4 units each (total 20 units)
Day-1: 5 puffs of 6 units each (total 30 units)

[3] = stage 3, U400, 4 units/actuation
[4] = stage 4, U400, 4 units/actuation
[5] = stage 5, U400, 4 units/actuation
[6] = stage 6, U400, 4 units/actuation
[7] = stage 7, U400, 4 units/actuation
[8] = stage 8, U400, 4 units/actuation

With insulin the “size of most particles” value ([1]; cascade impactor, most particles) was “smaller than 6 microns”, the “particle size (conclusion)” value ([1]; cascade impactor, overall) was “about 3 microns” and the “droplet size, generally” value ([1]; cascade impactor, indicates deep lung deposition) was “smaller than 4 microns”. For the same substance, the “mg (insulin deposited)” value ([1]; stage 3, 2 units/actuation) was 0.77 mg, the “units (insulin deposited)” value ([1]; stage 3, 2 units/actuation) was 10.1 units and the “mg (insulin deposited)” value [1, 3] was 0.77 mg. The “units (insulin deposited)” value [1, 3] was 20.1 units, the “mg (insulin deposited)” value ([1]; stage 4, 2 units/actuation) was 0.78 mg and the “units (insulin deposited)” value ([1]; stage 4, 2 units/actuation) was 10.1 units. The “mg (insulin deposited)” value [1, 4] was 0.78 mg, the “units (insulin deposited)” value [1, 4] was 20.1 units and the “mg (insulin deposited)” value ([1]; stage 5, 2 units/actuation) was 0.81 mg. The “units (insulin deposited)” value ([1]; stage 5, 2 units/actuation) was 10.0 units, the “mg (insulin deposited)” value [1, 5] was 0.81 mg and the “units (insulin deposited)” value [1, 5] was 20.0 units. The “mg (insulin deposited)” value ([1]; stage 6, 2 units/actuation) was 0.80 mg, the “units (insulin deposited)” value ([1]; stage 6, 2 units/actuation) was 10.3 units and the “mg (insulin deposited)” value [1, 6] was 0.80 mg. The “units (insulin deposited)” value [1, 6] was 20.3 units, the “mg (insulin deposited)” value ([1]; stage 7, 2 units/actuation) was 0.80 mg and the “units (insulin deposited)” value ([1]; stage 7, 2 units/actuation) was 10.1 units. The “mg (insulin deposited)” value [1, 7] was 0.80 mg, the “units (insulin deposited)” value [1, 7] was 20.1 units and the “mg (insulin deposited)” value ([1]; stage 8, 2 units/actuation) was 0.79 mg. For the same substance, the “units (insulin deposited)” value ([1]; stage 8, 2 units/actuation) was 10.1 units, the “mg (insulin deposited)” value [1, 8] was 0.79 mg and the “units (insulin deposited)” value [1, 8] was 20.1 units. For the same substance, the insulin deposition ([1]; stages 0-2) was “no insulin deposition” and the “absorption of insulin through lungs and oropharynx regions” value [2] was “significant absorption”.
